One substance from patent publication US20230287376 can be followed below.

Data set [1] has as its system Faustovirus capping enzyme (FCE) (Faustovirus). The conditions noted are these: 5'-triphosphate; soluble, 37 C, 30 min, SAM, GTP.
The test system of data set [2] is SNAP-FCE-T7 RNAP fusion (Faustovirus / phage T7). Particulars: 5'-triphosphate; soluble fusion.

A value given as a limit tells only on which side of the number the result lay.

For ppp25mer FAM RNA, the activity in data set [1] and in data set [2] was more than 95 % capping each time.
